Assay: yeast display, Sf9 membrane polyspecificity reagent, FACS + sequencing; frameworks hold sequencing errors
Procedure, shortened: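 A synthetic nanobody library was expressed on Saccharomyces cerevisiae BJ5465 by galactose induction for 36–48 hours. The library was stained for 1 hour at 4 °C with 10% biotinylated, detergent-solubilized Sf9 membrane reagent and enriched with streptavidin microbeads before FACS. Low and high (top ~1%) gates were set on anti-HA fluorescence for expression and streptavidin fluorescence for reagent binding, and each polyreactivity label reflects the gate of origin.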

| Sequence | polyreactivity (PSR sort gate) |
| --- | --- |
| QVQLVESGGGLVQAGGSLRLSCAASGSILGYYAMGLYRQAPGKERELVAAISGRGGSTYYADSLKGRFTISRDNAKNTVYLQMNSLKPEDTAVYYCAKRSVWRGWGQGTQVTVSS | high polyreactivity |
| QVHLVESGGGLVQAGGSLRLSCAASGFIFDFNTMGWYRQAPGKETEFVAAISGSGGRTYYADSVKGRFTISRDNAKNTVYLQMNSLKPEDTAVYYCAAYKRYYYGYDYWGQGTQVTVSS | high polyreactivity |
| QVHLVESGGGLVQAGGSLRLSCAASGSIFGPYMGWYRQAPGKERELVASVVSTYYADSVKGRFTISRDNAKNTVYLQMNSLKPEYTAVYYCNTQDTKNKSSVFVPSDYWGQGTQVTVSS | low polyreactivity |
| QVQLVESGGGLVQAGGSLRLSCAASGISFYVNAMGSYRQAPGKERELVVAITQSVDITSYADSVKGRFTISRDNEKNTVYLQMNSLKPEVTAVYYCATRVIQDDNARDYWGQGTQVTVSS | low polyreactivity |
| QVQLVESGGGLVQAGGSLRLSCAASGSTFTVNTMGWYRQAPGKERELVDAISFGGGPTYYADSVKGRFTISRDNAKNTVYLQMNSLKPDDTAVYYCAARGYLWHARKYYYWGQGTQVTVSS | high polyreactivity |
| QVQLVESGGGLVQAGGSLRLSCAASGSTFWVYAMGWYRPAPGKERELVAAIDYSGGSTYYADSVKGRFTISRDNAKNTVYLQMNSLKPEDTAVYYGAAGEGQYWLWDGEGEYDYWGQGTQVTVSS | low polyreactivity |
| QVQLVESGGGLVQAGGSLRLSCAASGRIFYYYAMGWYRQAPGKERELVASINSVGTTTYADSVKGRFTISRDNAKNTVYLKMNSLKPEDTAVYYCARDTGCIYYDGYAYDYWGQGTEVTVSS | low polyreactivity |
| QVQLVESGGGLVQAGGSLRLSCAASGSTFARYVMGWYRQAPGKERELVAAIRSTGGRTYYADSVKGRFTISRDNAKNNVYVQMNSLKPEDTAVYYCAAAFGQYSRKRFDYWGQGTQVTVSS | high polyreactivity |
| QVQLVESGGGLVQAGGSLRLSCAASGFTFVSYAMGWYRQAPGKEREFVATISKRGGSTYYADSVKGRFTNSRDNAKNTVYLQMNSLKPEDTAVYYCAAARNVYRGRVYWGRYDYWGQGTQVTVSS | high polyreactivity |
| QVQLVESGGGLVQAGGSLRLSCDASGIIFPRYAMGGYRQAPGKERELVAAITIGGRTNYADSVKGRFTISRDNAKNTVYLQMTSLKPEDTAVYYCAAQTYVPYYEYDYWGQGTQVTVSS | low polyreactivity |
| QVQLVESGGGLVQAGGSLRLSCAASGRTFYVNAMGWYRQAPGKERELVARITSGGSTYYADSVKGRFTISRDKAKNTVYLQMNSVKPEDTAVYYCAADYVSLSVFSYWAWYDYWGQGTQVTVSS | low polyreactivity |
| QDQHVESGGCLVQAGGSRRLSCAASGSILGAYTMGCYRQAQGKERELVAAITRRGGSTYYADSVKGRFTISRDNAKNTVYLQMNSLKPEDTAVYYWNAEYGVWYDYLVVPYDYWGQGTQVTVSS | low polyreactivity |
| QDQLVESGGGLVQAGGSLRLSCAASGSIFLDNAMGWYRQAPGKERELVAAISKSGTRTYYADSVKGRFTISRDNAKNTVYLQMNSLKPEDTAVYYCNVVPKQAKSVELIGYYYWGQGTQVTVSS | high polyreactivity |
| QVQLVESGGGLVQAGGSLRLSCAASGSIFRYYAMGWYRPAPGKERELVAAISSGGNTKYADSVKGRFTISRDNAKNTVYLQMNSLKPADTAVYYCNAAGKACGDYDYWGQGTQVTVSS | low polyreactivity |
| QVQLVESGGGLVQAGGSLRLSCAASGSTIRSYAMGWYRQAPGKERELVAVISSGDSTYYADSVKGRFTISRDNAKNTVYLQMNSLKPEDTAVYYCAADSYVLGRWYGYWGQGTQVTVSS | low polyreactivity |
| QVQLVESGGGLVQAGGSLRISCAASGGIFIRNAMGWYRQAPGKERELFATISNAGSTYADSVKGRFTISRDNAKNTVYLQMNSLKPEDTAVYYCNRVDWTYPVSQGLQEYDYRGQGTQVTVSS | low polyreactivity |
| QVQLVESGGGLVQAGGSLRLSCAASGSTFVHNAMGWYRQAPGKERELVARISFRSGRTYYADSVKGRFTISRDNAKNTVYLQMNSLKAEDTAVYYCNAVLYGQYKYDYWGQGTQVTVSS | high polyreactivity |
| QVQLVESGVCLVQAGGSLRLICAASGNTFYRYAMGWYRQAPGKERELVAAITGRGGSTYYADSVKGRFTISRDNAKNTVYLQMNSQKPEDTAVYYCAAESYGYGNDYWGQGTQVTVSS | low polyreactivity |
| QVQLVESAGGLVQAGGSLRLSCDASGRTFPYNAMGWYRQAHGKERELVAGITGGGSTYYADSVKGRFTISRDNAKNNVYLQMNSLKPEDTAVYYCAADRYFLYATYPDVEFNYWGQGTQVTVSS | high polyreactivity |
| QVQLVESGGGLVKAGGSLRLSCAASGSIFKGNVMGWYRQAPGKERELVAGINWSSGRTYYADSVKGRFTISRDNAKNTVYLQMNSLNPEDTAVYYCNAPQYFSYSWPYPREYDYWGQGTQVNVSS | high polyreactivity |
| QVQLVESGVGLVQAGGSLRLSCAASGITFYSYAMGWYRQAPGKERELVAAITLTGGTTYYADSVKGRFTISRDNAKNTVYLQMKSLKPEDTAVYYCAAQYWWWSLFEYDSWGQGTQVTVSS | low polyreactivity |
| QVQLVESGGGLVQAGVSLRLSCAASGIFRRYAMGWYIQAPGKERELVAAISSNGGSTYYADSVKGRFTISRDNAKNTVYLQMNSLKPEDTAVYYCNADVYVWNYYYWGQGTQVTVSS | high polyreactivity |

| Sequence | polyreactivity (PSR sort gate) |
| --- | --- |
| QVQLVESGGGLVQAGGSLRLSCAASGFTFYQYAMGWYRQAPGKEREFVAAISSSGSSTYYADSVKGRFTISRDNAKNTVYLQMNSLKPEDTAVYYCNAYFRNWRYSPGGYWGQGTQVTVSS | high polyreactivity |
| QVQLVESGGGLVQAGGSLRVSCAASGYTIKYYAMGWYRQAPGKERELVAAISKDGGSTYYADSVKGRFTISRDNAKNTVYLQMNSLKPEDTAVYYCAAKSNVRYGWREFYWGQGTQVTVSS | high polyreactivity |
| QVQLVESGGGLVQAGGSLRLSCAASGFIFYYYAMGWYRPAPGKERELVAAISGESTSTYYADSVKGRFTISRDNAKNTVYLQMNSLKPEDTALYYCAADLYHWDGYEYWGQGTQVTVST | high polyreactivity |
| QVQLVESGGGLVQAGGSLRLSCAASGFTSKTNAMGWYRQAPGKERELVAGITRTGGSTYYADSVKGRFTISRDNAKNTVYLQMNSLKPEDTAVYYCAREYGDGYEYWGQGTQVTVSS | low polyreactivity |
| QVQLVESGGGLVQAGGSLRLSCAASGLIFLYYAMGSYRQAPGKERELVAAIRTNYADSVKGRFTISRDNAKNTVSLQMNSLKPEDTAVYYCIAVSGDSGDYWGQGTQVTVSS | low polyreactivity |
| QVQLVESGGGLVQAGGSLRLSCAASGRILYSYAMGWYRQAPGKEREFVAAIRRSGGSTYYADSVKGRFSISRDNAKNTVYLQMNSLKPEDTAVYYCAAGRRYSGSYDYWGQGTQVTVSS | high polyreactivity |
| QVQLVESGGGLVQAGGSLRLSCAASGSIFDVYGMGWYRQAPGKERELVARITSAGNTDYADSVKGRFTISRDNAKNTVYLQRNSLKPEDTAVYYCARDYVWFYGDTDFYYYLFDYWGQGTQVTVSS | low polyreactivity |
| PVQLVESGGGLVQAGGSLRLSCAASGRTFGYNAMGWYRQAPGKERELVASISYRGGSTYYADSVKGRFTISRDNAKNTVYLQMNSLKPEDTAVYYCNKYYVWREYYWGQGTQVNVSS | high polyreactivity |
| QVQLVESGGGLVQAGGSLRLSCAASGPTFPFNAMVWYRQAPGKERELVAAISWRDGRTYYADSVKGRFTISRDNAKNTVYLQMNSLKPEDTAVYYCNVVKRRSDWGMVYWGQGTQVTVSS | high polyreactivity |
| QVQLVESGGGLVQAGGSLRLSCAASGSIFDSNTMGWYRQAPGKERELVAAITGTGTSTYYADSVKGRFTISRDNAKNTVYLQMNSLKPEDTAVYYCAADLEYKTWWYDYWGQGTQVTVSS | low polyreactivity |
| QVQLVESGGGLVQAGGSLRLSCAASGSIFGGYAMGWYRQAPGKERELVAAISRSGASTYYADSVKGRFTISRDNAKNTVYLQMNSLKPVDTAVYYCAAYALRGVRYPYRVDFYYWGQGTQVTVSS | high polyreactivity |
| QVQLVESGGGLVQAGGSLRLSCAASGFTFDPYAMGWYRQAPGKERELVAAISFSGGSTSYADSVKGRFTISRDNAKNTVYLHMNSLKLEDTAVYYCNAEYDWWSYWYDYWGQGTQVTVSS | high polyreactivity |
| QVQLVESGGGLVQAGGSLRISCAASGRIFGKNALGRYRQAPGKERDLVAAITGSGGSTYYADSVKGRFTISRDNAKNTVYLQMNSLKPEDTAVYYCATAYAVYHVEYGYWGQGTQVTVSS | low polyreactivity |
| QVQLVESGGGLVQAGGSLRLTCAASGFIFSRYTMGWYRQAPGKERELVAAISRRGGNTYYADSVKGRFTISRDNAKNTVYLQMNSLKPEDTAVYYCAADYAWPLRVTGDYWGQGTQVTVSS | low polyreactivity |
| QVQLVESAGGLVQAGGSLRLSCAASGSTFQDYVMGWYRQAPGKERELVAAISRSGGSTYYADSVKGRFTISRDNAKNTVYLQMNSLKPEDTAVYYCAAQQYTYFVPFLTYGEYDYWGQGTQVTVSS | low polyreactivity |
| QVQLVESGGGLVQAGGSLRLSCAASGSIFGRYAMGWYRQAPGKERELLAALTYRGGTTYYADSVKGRFTISRDNAKNTVYLQMNSLKPEDTAVYYCAAEGTWYYKYGYFAYYYWGQGTQVTVSS | low polyreactivity |
| QVQLVESGGGLVQAGGSLRLSCAASGFIFRPNAMGWYRQAPGKERELVAAITGRSGSTNYADSVKGRFTISRDNAKNTVYLQMNSLKPEDTAVYYCAARVWQGYYPGYYYWGQGTQVTVSS | high polyreactivity |
| QVQLVESGGGLVQAGGSLRLSCAASGSTFGPYVMGRYRQAPGKDRELVAAITRSGGRTYYADSVKGRFTISRDNAKNTVYLQMNSLKPEDTAVYYCAAPPSEATSQRYKYNYWGQGTQVTVSS | high polyreactivity |
| QVQLVESGGGLVQAGGSLRLSCAASGFTFDVYTMGWYRQAPGKEREFVAAISGSGGSTYYADSVKGRFTISRDNAKNTVYLQMNSLKPEDTAVYYCNAGLSRVSHRHLSHSLQGYDYWGQGTQVTVSS | low polyreactivity |
| QVQLVESGAGLVQAGGSLRLSCSASGRTFPGYAMGWYRQAPGKERELVATISSADSTNYADSVKGRFTISRDNGKNTVYLQMNSLKAEDTAVYYCAKRYGRNGAAAQYTGGYRYDYWGQGTQVSVSS | low polyreactivity |
| QVQLVESGGGLVQAGGSLRLSCAASGRNFLVYAMGWYRQAPGKERELVAAITYSDGSTYYADSVKGRFTISRDNAKNTVYLQMNSLKPEDTAVYYCAADSSTFPSDYYWGKGTQVTVSS | low polyreactivity |

From the nanobody polyreactivity screen of Harvey et al. (2022)
